Molecular target: TNF-alpha (UniProt P01375 77-233)
Assay: FRET quenching (QD photoluminescence decreases with TNF-alpha); DSS peptide-conjugated QD/Au molecular beacon, TNF-alpha in PBS; TNF-alpha samples in PBS; other assay conditions (temperature, concentrations) not in the material; beacon washed in 50 mM borate pH 8.3
Details: chain copies: 3

TNF-alpha, sequence (P01375 77-233): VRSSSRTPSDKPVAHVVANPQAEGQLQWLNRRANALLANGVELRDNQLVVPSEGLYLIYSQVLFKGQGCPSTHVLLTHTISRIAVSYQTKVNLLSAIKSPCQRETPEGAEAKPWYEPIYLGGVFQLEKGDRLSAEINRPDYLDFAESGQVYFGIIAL

Does TGGTGGATGGCGCAGTCGGCGACAA (ssDNA, 5' Amino C6; 3' Thiol C6 SS) [TNF-alpha binding DNA aptamer (25 nt) in DSS-molecular beacon] bind?
Result: binds

Reference: paper PMC7413375, “A study on the response of FRET based DNA aptasensors in intracellular environment”
